Source: paper PMC4869123 (Scientific Reports, 2016)
*1 amine or outer side, *2 acyl side, *3 side chain or, on linkers, in order; H or OH if unused. Where a SMILES comes first, the peptide text is derived from it. Bridges are numbered along the chain shown (N, C = ends). Roman numbers before positions name the chains, in order. Where no end group is shown, it is not given here. [ ]: non-standard residue; d: D form. X1 = O=C(CCOCCOCCOCCOCCOCCOCCOCCOCCOCCOCCOCCOCCOCCOCCOCCOCCOCCOCCOCCOCCOCCC(=O)[*:2])[*:1]; CO(CH2CH2O)5CH2CH2CO = O=C(CCOCCOCCOCCOCCOCCC(=O)[*:2])[*:1]; Lys(Me2) = CN(C)CCCC[C@H](N)C(=O)O

B1: peptide 2 (peptide)
peptide: Ac-IVVTMPADLWDWIRA
modifications: not fully specified (C-terminus)
notes: analogue of peptide 1 with lysine to arginine at position 14; parent of the alanine scan; made on Rink resin; a C-terminal amide is surmised; source: synthetic peptide
B2: peptide 3 (peptide)
peptide: Ac-IVVTMPADLWDWIRK
modifications: not fully specified (C-terminus)
notes: analogue of peptide 2, K at position 15; made on Rink resin; a C-terminal amide is surmised; source: synthetic peptide
B3: peptide 13 (peptide)
peptide: Ac-IVVTAPADLWDWIRA
modifications: not fully specified (C-terminus)
notes: analogue of peptide 2, A at position 5; made on Rink resin; a C-terminal amide is surmised; source: synthetic peptide
B4: peptide 21 (peptide)
peptide: Ac-ITVTMPADLWDWIRA
modifications: not fully specified (C-terminus)
notes: analogue of peptide 2, T at position 2; made on Rink resin; a C-terminal amide is surmised; also called V2T; source: synthetic peptide
B5: peptide 16 (peptide)
peptide: Ac-IAVTMPADLWDWIRA
modifications: not fully specified (C-terminus)
notes: analogue of peptide 2, A at position 2; made on Rink resin; a C-terminal amide is surmised; source: synthetic peptide
B6: peptide 9 (peptide)
peptide: Ac-IVVTMPADAWDWIRA
modifications: not fully specified (C-terminus)
notes: analogue of peptide 2, A at position 9; made on Rink resin; a C-terminal amide is surmised; source: synthetic peptide
B7: peptide 4 (peptide)
peptide: Ac-IVVTMPADLWDWIAA
modifications: not fully specified (C-terminus)
notes: analogue of peptide 2, A at position 14; made on Rink resin; a C-terminal amide is surmised; source: synthetic peptide
B8: peptide 8 (peptide)
peptide: Ac-IVVTMPADLADWIRA
modifications: not fully specified (C-terminus)
notes: analogue of peptide 2, A at position 10; made on Rink resin; a C-terminal amide is surmised; source: synthetic peptide
B9: peptide 10 (peptide)
peptide: Ac-IVVTMPAALWDWIRA
modifications: not fully specified (C-terminus)
notes: analogue of peptide 2, A at position 8; made on Rink resin; a C-terminal amide is surmised; source: synthetic peptide
B10: peptide 19 (peptide)
peptide: Ac-IQVTMPADLWDWIRA
modifications: not fully specified (C-terminus)
notes: analogue of peptide 2, Q at position 2; made on Rink resin; a C-terminal amide is surmised; source: synthetic peptide
B11: peptide 22 (peptide)
peptide: Ac-IWVTMPADLWDWIRA
modifications: not fully specified (C-terminus)
notes: analogue of peptide 2, W at position 2; made on Rink resin; a C-terminal amide is surmised; source: synthetic peptide
B12: peptide 6 (peptide)
peptide: Ac-IVVTMPADLWDAIRA
notes: analogue of peptide 2, A at position 12; made on Rink resin; a C-terminal amide is surmised; also called W12A variant; source: synthetic peptide
B13: peptide 17 (peptide)
peptide: Ac-AVVTMPADLWDWIRA
modifications: not fully specified (C-terminus)
notes: analogue of peptide 2, A at position 1; made on Rink resin; a C-terminal amide is surmised; source: synthetic peptide
B14: peptide 23 (peptide)
peptide: Ac-IYVTMPADLWDWIRA
modifications: not fully specified (C-terminus)
notes: analogue of peptide 2, Y at position 2; made on Rink resin; a C-terminal amide is surmised; source: synthetic peptide
B15: peptide 14 (peptide)
peptide: Ac-IVVAMPADLWDWIRA
modifications: not fully specified (C-terminus)
notes: analogue of peptide 2, A at position 4; made on Rink resin; a C-terminal amide is surmised; source: synthetic peptide
B16: peptide 7 (peptide)
peptide: Ac-IVVTMPADLWAWIRA
modifications: not fully specified (C-terminus)
notes: analogue of peptide 2, A at position 11; made on Rink resin; a C-terminal amide is surmised; source: synthetic peptide
B17: peptide 15 (peptide)
peptide: Ac-IVATMPADLWDWIRA
modifications: not fully specified (C-terminus)
notes: analogue of peptide 2, A at position 3; made on Rink resin; a C-terminal amide is surmised; source: synthetic peptide
B18: peptide 5 (peptide)
peptide: Ac-IVVTMPADLWDWARA
modifications: not fully specified (C-terminus)
notes: analogue of peptide 2, A at position 13; made on Rink resin; a C-terminal amide is surmised; source: synthetic peptide
B19: peptide 12 (peptide)
peptide: Ac-IVVTMAADLWDWIRA
modifications: not fully specified (C-terminus)
notes: analogue of peptide 2, A at position 6; made on Rink resin; a C-terminal amide is surmised; source: synthetic peptide
B20: peptide 28 (peptide)
peptide: Ac-IVVTMPADLWDWINA
modifications: not fully specified (C-terminus)
notes: analogue of peptide 2, N at position 14; made on Rink resin; a C-terminal amide is surmised; source: synthetic peptide
B21: peptide 18 (peptide)
peptide: Ac-IHVTMPADLWDWIRA
modifications: not fully specified (C-terminus)
notes: analogue of peptide 2, H at position 2; made on Rink resin; a C-terminal amide is surmised; also called V2H; source: synthetic peptide
B22: peptide 20 (peptide)
peptide: Ac-IRVTMPADLWDWIRA
modifications: not fully specified (C-terminus)
notes: analogue of peptide 2, R at position 2; made on Rink resin; a C-terminal amide is surmised; source: synthetic peptide
B23: peptide 27 (peptide)
peptide: Ac-IVVTMPADLWDWIMA
modifications: not fully specified (C-terminus)
notes: analogue of peptide 2, M at position 14; made on Rink resin; a C-terminal amide is surmised; source: synthetic peptide

These molecules were tested against T1, biotinylated recombinant human IL-17A (rhIL-17, R&D Systems #317-ILB) (human, UniProt Q16552 24-155, biotinylated) (assay: not given). Settings: both partners purified.
T1 construct: IL-17A, human, recombinant; also called Biotinylated IL-17A; source: bought: R&D Systems
T1 sequence (Q16552 24-155): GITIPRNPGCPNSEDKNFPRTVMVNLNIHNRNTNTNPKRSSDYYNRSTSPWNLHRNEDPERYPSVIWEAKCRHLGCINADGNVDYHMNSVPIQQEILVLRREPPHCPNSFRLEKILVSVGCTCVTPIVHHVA

Molecule | IC50 [nM]
B1 | 80
B2 | 66
B3 | 11
B4 | 31
B5 | 149
B6 | 640
B7 | 172
B8 | 524
B9 | 4020
B10 | 71
B11 | 522
B12 | 7450
B13 | 167
B14 | 64
B15 | 195
B16 | 474
B17 | 5720
B18 | 402
B19 | 2650
B20 | 26
B21 | 45
B22 | 117
B23 | 31

The molecules below were run against T2, human IL-17A (Homo sapiens, UniProt Q16552) (assay: BJ human fibroblast cell assay, IL-17A stimulated GRO-α production). Settings: BJ human fibroblast cells, 1 ng/ml human IL-17A.
T2 construct: host or cells: added to BJ human fibroblasts (ATCC CRL2522)
Type: cell-based
Source text: For inhibitor screen, human BJ fibroblast cells (ATCC CRL2522) (American Type Culture Collection, VA) were used. For mouse cell based assay MLE-12 mouse epithelial cells (ATCC CRL2110) were used. Both cell lines were maintained in ATCC recommended media.

T2 sequence (Q16552 24-155): as above

Molecule | IC50 [nM]
CC[C@H](C)[C@H](NC(C)=O)C(=O)N[C@H](C(=O)N[C@H](C(=O)N[C@H](C(=O)N[C@H](C(=O)N1CCC[C@H]1C(=O)N[C@@H](C)C(=O)N[C@@H](CC(=O)O)C(=O)N[C@@H](CC(C)C)C(=O)N[C@@H](Cc1c[nH]c2ccccc12)C(=O)N[C@@H](CC(=O)O)C(=O)N[C@@H](Cc1c[nH]c2ccccc12)C(=O)N[C@H](C(=O)N[C@@H](CC(N)=O)C(=O)N[C@@H](CCCCN(C)C)C(=O)N[C@@H](CCCCNC(=O)CCOCCOCCOCCOCCOCCC(=O)NCCCC[C@H](NC(=O)[C@H](CCCCN(C)C)NC(=O)[C@H](CC(N)=O)NC(=O)[C@@H](NC(=O)[C@H](Cc1c[nH]c2ccccc12)NC(=O)[C@H](CC(=O)O)NC(=O)[C@H](Cc1c[nH]c2ccccc12)NC(=O)[C@H](CC(C)C)NC(=O)[C@H](CC(=O)O)NC(=O)[C@H](C)NC(=O)[C@@H]1CCCN1C(=O)[C@@H](NC(=O)[C@@H](NC(=O)[C@@H](NC(=O)[C@@H](NC(=O)[C@@H](NC(C)=O)[C@@H](C)CC)[C@@H](C)O)C(C)C)[C@@H](C)O)[C@@H](C)CC)[C@@H](C)CC)C(N)=O)C(N)=O)[C@@H](C)CC)[C@@H](C)CC)[C@@H](C)O)C(C)C)[C@@H](C)O [Compound 46] (I: Ac-ITVTIPADLWDWIN[Lys(Me2)]K-NH2 / II: Ac-ITVTIPADLWDWIN[Lys(Me2)]K-NH2; linker I:16-II:16 via CO(CH2CH2O)5CH2CH2CO) | 582
CC[C@H](C)[C@H](NC(C)=O)C(=O)N[C@H](C(=O)N[C@H](C(=O)N[C@H](C(=O)N[C@H](C(=O)N1CCC[C@H]1C(=O)N[C@@H](C)C(=O)N[C@@H](CC(=O)O)C(=O)N[C@@H](CC(C)C)C(=O)N[C@@H](Cc1c[nH]c2ccccc12)C(=O)N[C@@H](CC(=O)O)C(=O)N[C@@H](Cc1c[nH]c2ccccc12)C(=O)N[C@H](C(=O)N[C@@H](CC(N)=O)C(=O)N[C@@H](CCCCN(C)C)C(=O)N[C@@H](CCCCNC(=O)CCOCCOCCOCCOCCOCCOCCOCCOCCOCCOCCOCCOCCOCCOCCOCCOCCOCCOCCOCCOCCOCCC(=O)NCCCC[C@H](NC(=O)[C@H](CCCCN(C)C)NC(=O)[C@H](CC(N)=O)NC(=O)[C@@H](NC(=O)[C@H](Cc1c[nH]c2ccccc12)NC(=O)[C@H](CC(=O)O)NC(=O)[C@H](Cc1c[nH]c2ccccc12)NC(=O)[C@H](CC(C)C)NC(=O)[C@H](CC(=O)O)NC(=O)[C@H](C)NC(=O)[C@@H]1CCCN1C(=O)[C@@H](NC(=O)[C@@H](NC(=O)[C@@H](NC(=O)[C@@H](NC(=O)[C@@H](NC(C)=O)[C@@H](C)CC)[C@@H](C)O)C(C)C)[C@@H](C)O)[C@@H](C)CC)[C@@H](C)CC)C(N)=O)C(N)=O)[C@@H](C)CC)[C@@H](C)CC)[C@@H](C)O)C(C)C)[C@@H](C)O [Compound 47] (I: Ac-ITVTIPADLWDWIN[Lys(Me2)]K-NH2 / II: Ac-ITVTIPADLWDWIN[Lys(Me2)]K-NH2; linker I:16-II:16 via X1) | 16
